In publication doi:10.1101/187336:

Target: fHbp^V1.1:PorA^267/P1.16 (Neisseria meningitidis (MC58 genomic DNA) | Neisseria meningitidis) (UniProt Q9JXV4)
Assay: SPR

human complement FH domains 6 and 7 (from UniProt P08603 321-443) (domain or fragment)
fold reduction of CFH binding: 8 fold
